According to patent US20250177548A1, “FUSOGENIC PEPTIDE COMPOSITIONS AND METHODS OF CARGO DELIVERY” (CLEMSON UNIVERSITY, priority 2022, published 2025):
“Also recorded” adds a separate entry of the source. Non-standard residues stand in square brackets, D forms with d. No end group written: not given here. pG = not defined here

Experiments:
[1] = dynamic light scattering, size and zeta potential of peptide/siRNA complexes; format: physicochemical; settings: LHRH-DIV3W peptide/siRNA complexes
Method: Dynamic Light Scattering and Transmission Electron Microscopy. DIV3 (X)-siNT complexes were prepared at 2 mg/mL in RNase-free water. Hydrodynamic size and surface charge of the peptide/siRNA complexes were determined using a Nano ZS Zetasizer (Malvern Pananalytical, Malvern, UK). All data were recorded using Malvern's Zetasizer software.
To determine nanoparticle size and zeta potential, peptides resuspended in RNase-free water (10 μM) were thawed and kept on ice prior to complexation with 10 μM of siNT in RNase-free water and incubated for 20 minutes at room temperature to form DIV3W-siNT and LHRH-DIV3W-siNT complexes. Peptide complexes were prepared at 2 mg/mL in RNase-free water. Hydrodynamic size and surface charge analysis was conducted using a Malvern Nano ZS Zetasizer (Malvern Panalytical, Malvern, UK). All data was analyzed using Malvern's Zetasizer software.

LHRH receptor = target: T1, LHRH receptor (Homo sapiens, UniProt P30968); test: competitive binding assay with LHRH receptor antibody; format: cell-based; settings: OVCAR3 and CAOV3 cells, siNT-Cy5.5 complexes, 4 hours
T1 construct: endogenous in cells; host or cells: OVCAR3, CAOV3
T1 sequence (P30968 1-328): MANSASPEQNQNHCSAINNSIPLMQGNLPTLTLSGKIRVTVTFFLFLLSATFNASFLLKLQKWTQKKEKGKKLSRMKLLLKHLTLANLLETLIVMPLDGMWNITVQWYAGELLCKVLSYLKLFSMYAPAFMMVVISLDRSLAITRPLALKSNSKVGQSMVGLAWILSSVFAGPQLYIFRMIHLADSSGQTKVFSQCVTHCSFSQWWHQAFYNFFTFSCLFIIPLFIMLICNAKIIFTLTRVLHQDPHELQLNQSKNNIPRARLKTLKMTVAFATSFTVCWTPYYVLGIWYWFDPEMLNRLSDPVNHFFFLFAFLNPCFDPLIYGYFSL
Method: To analyze the specificity of the LHRH-DIV3W tandem peptide targeting LHRH receptor, a competitive binding assay was performed by incubating OVCAR3 and CAOV3 cells with GnRHR primary antibody (1:100) in 1× PBS overnight at 4° C. after being blocked with a 1% bovine serum albumin solution for 30 minutes at room temperature. LHRH-DIV3W-siNT-Cy5.5 complexes were delivered after the overnight primary antibody incubation and incubated again for 4 hours. Secondary SuperSignal Alexa Fluor 488 antibodies were delivered dropwise to cells following Invitrogen SuperSignal protocols and left to incubate at room temperature for 30 minutes and subsequently stained with SuperSignal NucBlue Hoescht 33342 for an additional 30 minutes at room temperature. Cells were imaged at 20× and 40× using an Evos FL microscope (Thermo Fisher).

CSNK2A1 mRNA = test: qPCR of CSNK2A1 mRNA in OVCAR3 cells; format: cell-based
Method: qRT-PCR. Cells were seeded at 50,000 cells per well and treated with siRNA targeting CSNK2A1 (siCSNK2A1 #s3638, Thermo Fisher Scientific) at increasing N:P ratios and incubated for a total of 48 hours in McCoys 5A/DMEM-10% FBS. Treated cells were washed with 1×PBS at 24 hours and fresh media was added. RNAisolation was completed using a Qiagen Mini-RNeasy Kit (Qiagen, Hilden, Germany) according to the manufacturer's protocol. RNA isolation quality and quantity were measured through the Gen5 protocol using a Take3 plate (BioTek). RNA was reverse-transcribed using the QuantiTect Reverse Transcription kit (Qiagen). Quantitative real-time PCR was completed with a QuantStudio 3 qPCR system (Applied Biosystems) using Applied Biosystems TaqMan FAST Master Mix (Thermo Fisher) and CSNK2A1 (ID #Hs00751002_s1) and 18S (ID #Hs99999901_s1) predesigned TaqMan probes, according to the manufacturer's protocol.
Gene and Protein Knockdown. Bioactivity of siRNAs was determined via qPCR and western blot analysis. OVCAR3 or CAOV3 cells were seeded at 50,000 cells per well as previously described and treated with siRNA targeting CSNK2A1 and siNT at N:P ratios 30:1, 40:1, 50:1, 60:1, and 70:1. LHRH-DIV3W peptide complexed with either siNT or siCSNK2A1 was incubated for a total of 48 hours in RPMI 1640/DMEM-10% FBS, with one media exchange occurring after the 24-hour timepoint. Treated cells were washed with 1×PBS at 24 hours and fresh media was added. RNA isolation was completed using a Qiagen Mini-RNeasy Kit (Qiagen, Hilden, Germany) according to the manufacturer's protocol. RNA isolation quality and quantity was measured through the Gen5 protocol using a Take3 plate (BioTek). RNA was reverse transcribed using the QuantiTect Reverse Transcription kit (Qiagen) according to the manufacturer's protocol. Quantitative real-time PCR was completed with a QuantStudio 3 qPCR system (Applied Biosystems, Waltham, MA) using Applied Biosystems TaqMan FAST Master Mix (Thermo Fisher) and CSNK2A1 (ID #Hs00751002_s1) and 18S (ID #Hs99999901_s1) predesigned TaqMan probes according to the manufacturer's protocol.

pGHWSY-(d) LLRPGGGGGWEADIVADIVWDIVADIVAGGG-(d) RRRRRRRRR ([pG]HWSY[dL]LRPGGGGGWEADIVADIVWDIVADIVAGGG[dR][dR][dR][dR][dR][dR][dR][dR][dR]; reading uncertain) [LHRH-DIV3W]
nanoparticle size (DLS) [1]: 154.2±15.9 nm
polydispersity index [1]: 0.18
zeta potential (positive charge) [1]: 33.37±2.00 mV
siRNA internalization after preincubation with LHRH receptor antibody (LHRH receptor): siRNA internalization was drastically decreased; also recorded: minimal siRNA internalization
CSNK2A1 mRNA expression, % of negative control (CSNK2A1 mRNA; 50:1, vs LHRH-DIV3W-siNT): 59.75%±12.61%
CSNK2A1 mRNA expression, % of negative control (CSNK2A1 mRNA; 60:1, vs LHRH-DIV3W-siNT): 72.17%±23.19%
CSNK2A1 mRNA expression, % of negative control (CSNK2A1 mRNA; 70:1, vs LHRH-DIV3W-siNT): 51.88%±9.87%
cytotoxicity of peptide alone (OVCAR3 cells): did not cause cytotoxic effects
viability (OVCAR3 cells): 109.66%+0.8%
